In the experiment the target is human MIP-1α (human) (UniProt P10147). In words: 125I-MIP-1α bound to human monocytic cells, Exp. 1, 200X molar excess M-T1.
Sequence of UniProt P10147 (P10147 24-92 limits assumed): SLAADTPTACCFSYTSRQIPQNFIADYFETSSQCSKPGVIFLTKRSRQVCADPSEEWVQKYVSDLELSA

Take myxoma T1 protein (type-2 CBP): the Surface Bound MIP-1α amounted to 978 cpm.

These data come from patent EP1034789A1.
